Measurements as given in the nanobody polyreactivity screen of Harvey et al. (2022).

experiment: yeast display, Sf9 membrane polyspecificity reagent, FACS + sequencing; frameworks hold sequencing errors
Method in brief: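 Galactose induction of a Saccharomyces cerevisiae BJ5465 synthetic nanobody display library ran 36–48 hours. The cells were then stained for 1 hour at 4 °C with 10% biotinylated, detergent-solubilized Sf9 membrane reagent, pulled down on streptavidin microbeads and FACS-sorted into low and high (top ~1%) gates on expression and reagent-binding fluorescence. Labels for polyreactivity follow the gate of origin.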

Row | Sequence | polyreactivity (PSR sort gate)
1 | QVQLVESGGGLVQAGGSLRLSCAASGRILGKYAMGWYRQAAGKERELVAAIRLRGGSTYYADSVKGRFTISRDNAKNTVYLQMNSLKPEDTAVYYCAARYWDRSQAYNYWGQGTQVTVSS | high polyreactivity
2 | QVQLVESGGGLVQAGGSLRLSCAASGRILGSYAMGWYRQAPGKERELVAAISSGARTNYADSVKGRFTISRDHAKNTVYLQMNCLKPEDTAVYYCAAATYNQDYSYDYWGQGTQVTVSS | low polyreactivity
3 | QVQLVESGGGLVQAGGSLRLSCAASGRILGSYAMGWYRQAPGKERELVAGISWRGGRTYYADSVKGRFTISRDNAKNTVYLQLNSLKPEDTAVYYCATRSSSRKYGYWGQGTQVTVSS | high polyreactivity
4 | QVQLVESGGGLVQAGGSLRLSCAASGRILGSYAMGWYRQAPGKERELVAGISWRGGRTYYADSVKGRFTISRDNAKNTVYLQMNSLKPEDTAVYYCATRSSSRKYGYWGQGTQVTVSS | high polyreactivity
5 | QVQLVESGGGLVQAGGSLRLSCAASGRILGTYAMGWYRQAPGKERELVAAISGSGGDTYYADSVKGRFTISRDNAKNTVYLQMNSLKPEDTAVYYCAAEVPFTGGFFKYYYWGQGTQVTVSS | low polyreactivity
6 | QVQLVESGGGLVQAGGSLRLSCAASGRILGVNAMGWYRQAPGKERELVAAINWNGGSTYYADSVKGRFTISRDNAKNTVYLQMNSLKPEDTAVYYCAAERSLYYVYSREYWGQGTQVTVSS | low polyreactivity
7 | QVQLVESGGGLVQAGGSLRLSCAASGRILGYYGMGWYIQAPGKERELVAAITSGGGSTYYADSVKGRFTISRDNAKNTVYLQMNSLKPEDTAVYYCNAVPSQHDEFDYWGQGTQVTVSS | low polyreactivity
8 | QVQLVESGGGLVQAGGSLRLSCAASGRILHFYAMGWYRQAPGKERELVAAISKSGGSTYYADSVKGRFTISRDNAKNTVYLQMNSLKPEDTAVYYCAASFIRRGSYSTTSAPGRYYWGQGTQVTVSS | high polyreactivity
9 | QVQLVESGGGLVQAGGSLRLSCAASGRILHIYAMGWYRQAPGKERELVAAISWIGTSTYYADSVKGRFTISRDNAMNTVFLQMNSLKPEDTAVYYCAATGPRMYYWGQGTQVTVSS | high polyreactivity
10 | QVQLVESGGGLVQAGGSLRLSCAASGRILHRNAMGWYRQAPGKERELVSAIRSRGGGTYYADSVKGRFTISRDNAKNTVYLQMKSLKPEDTAVYYCNTDRSTRTVGPGLYGYWGQGTQVTVSS | low polyreactivity
11 | QVQLVESGGGLVQAGGSLRLSCAASGRILKRKAMGLYRQAPGKERELVAAISWSTGTTYYADSVKGRLTISVDNAKNTVYLQMNSLKPEDTAVYYCAKKIVSGRRVDRNDYWGQGTQVTVSS | low polyreactivity
12 | QVQLVESGGGLVQAGGSLRLSCAASGRILKVYAMGWYRQAPGKERELVAAISVNGGRTYYADSVKGRFTISRDNAKNTVYLQMNSLKPEDTAVYYCAKRLYKPGNVFYSVDQSDYWGQGTQVTVSS | low polyreactivity
13 | QVQLVESGGGLVQAGGSLRLSCAASGRILNVYAMGWYRQAPGKERELHAAINYRGTNTYYADSVKGRFTISRDNAKNTVFLQMNSLKPEDTAVYYCAAERWYYNVYAEYSWGQGTQVTVSS | high polyreactivity
14 | QVQLVESGGGLVQAGGSLRLSCAASGRILNVYAMGWYRQAPGKERELVAAINYRGTNTYYADSVKGRFTISRDNAKNTVYLQMNSLKPEDTADYYCAARRHVYLRGSTFEFNYWGQGTHVTVSS | high polyreactivity
15 | QVQLVESGGGLVQAGGSLRLSCAASGRILNWNVMGWYRQAPGKERELVAGISSDGSTYADSVKGRFTISRDNAKNTVYFQMNSLKPEDTAVYYCAADRVGLSRGYDYWGQGTQVTVSS | low polyreactivity
16 | QVQLVESGGGLVQAGGSLRLSCAASGRILPLYAMGWSRQAPGKERELVATMILDGDSTYYADSVKGRFTISRDNAKNTVYLQMNSQKPEDTAVYYCNDDYTPWGRGYPYDYWGQGSQVTVSS | low polyreactivity
17 | QVQLVESGGGLVQAGGSLRLSCAASGRILPSNAMGWYRQAPGKDRELVATISSSGGDTYYADSVKGRFTISRDNAKNTVYLQMKSLKPEDTAVYSCNAAGRTPSTGFDYDYWGQGTQVTVSS | low polyreactivity
18 | QVQLVESGGGLVQAGGSLRLSCAASGRILPYNVMGWFRQARGKEREFVAAITGSGGDTYYADSVKGRFTISRDNAKNTVYLQMNSLKPEDTAVYYCAAAPYIGGSFGQTPGSGYWGQGTQVTVSS | low polyreactivity
19 | QVQLVESGGGLVQAGGSLRLSCAASGRILPYYAMGWYRQEPGKERELVAAITGGGGSTYYADSVKGRFTISRDNAKNTVYLQMNSLKPEDTAVYYCAKPRGRASLALYRFSLYYYWGQGTQVTVSS | high polyreactivity
20 | QVQLVESGGGLVQAGGSLRLSCAASGRILRGYAMGWYRQAPGKERELVAAINSGGDTYYADSVKGRFTISRDNAKNTVYLQMNSLKPEDTAVYYCASDYWGWIYLYGDHLVDYRGQGTQVTVSS | low polyreactivity
21 | QVQLVESGGGLVQAGGSLRLSCAASGRILRHNAMGWYRQAPGKERELVAAITRSGGRTYYADSVKGRFTISRDNAKNTVYLQMNSLKPEDTAVYDCAAGDYGWVPYNLRGSRMNYWGQGTQVTVSS | high polyreactivity
22 | QVQLVESGGGLVQAGGSLRLSCAASGRILRQYAMGWYRQEPGKERELVAAISRSGASTFYADSVKGRFTISRDNAKNTVYLPMNSLKPEYTAVYYCASKRYLKYGYWGQGTQVTVSS | high polyreactivity

Row | Sequence | polyreactivity (PSR sort gate)
23 | QVQLVESGGGLVQAGGSLRLSCAASGRILRTYAMGWYRQAPGKERELVAAITRGGSTYYADSVKGRFTISRDNAKNTVYLQMNSLKPEDTAVYYCNKYKSPYITLSQYGYWGQGTQVTVSS | high polyreactivity
24 | QVQLVESGGGLVQAGGSLRLSCAASGRILRYKAMGWYRQAPGKDRELVAAMSSGGSTYADSVKGRFTISRDNAKNTVYLQMNSLKPEDTAVYYCAVQSTRRGPYSWPYGYWGQGTQVTVSS | high polyreactivity
25 | QVQLVESGGGLVQAGGSLRLSCAASGRILRYNAMGWYRQAPGKERELVASISGNGGSTYYADSVKGRFTISRDNAKNTVYLQMNSLKPEDTAVYYCNKYYYSSRGQKEYDYWGQGTQVTVSS | low polyreactivity
26 | QVQLVESGGGLVQAGGSLRLSCAASGRILRYYAMGWYRQAPGKERELVASITSGGSTYYADSVKGRFTISRDNAKNTVYLQMNSLKQEDTAVYYCAADPVYLKKLLYYVGQAYYYWGQGTQVTVSS | high polyreactivity
27 | QVQLVESGGGLVQAGGSLRLSCAASGRILSVYAMGWYRQAPGKERELDAGISKRGGRTYYADSVKGRFTISRDNAKNTVYLQMKSLTPEDTAVYYCAADYSSYWGRDYWGQGTQVTVSS | high polyreactivity
28 | QVQLVESGGGLVQAGGSLRLSCAASGRILSYYAMGWYRQAPGKERELVATISASGGSTYYADSVKGRFTISRDNAKNTVYLQMNSLKPEDTAVYYCAAARVPAYYLRYFYRTTYDYWGQGTQVTVSS | high polyreactivity
29 | QVQLVESGGGLVQAGGSLRLSCAASGRILTPYTMGWYRQAPGKERELVAAISKRGTSTHYADSVKGRFTISRDNAKNTVYLLMNSLKPEDTAVYYCNAVYRSSQYDYWGQGTQVTVSS | high polyreactivity
30 | QVQLVESGGGLVQAGGSLRLSCAASGRILTSNAMGWSRQAPGKERELVAAISWSGGSTYYADSVKGRFTISRDNAKNTVYLQMNSLKPEDTAVYYCAAPFTTTFDYWGQGTQVTVSS | low polyreactivity
31 | QVQLVESGGGLVQAGGSLRLSCAASGRILVRNAMGWYRQAPGKERELVAAIRRGTSTNYADSVKGRFTISRDNAKNTVYLQMNSLKPEDTAVYYCAVRAASPYLDGAWRRRYDYWGQGTQVTVSS | low polyreactivity
32 | QVQLVESGGGLVQAGGSLRLSCAASGRILYDYDMGWYRQAPGKERELVATISRGGGTNYADSVKGRFTISRDNAKNTVYLQMNSLKPEDTAVYYCAADRWYSRYTRYGYWGQGTQVTVSS | low polyreactivity
33 | QVQLVESGGGLVQAGGSLRLSCAASGRILYGYAMGWYRQAPGKERELVASIPWSGGSTYADSVKGRFTISRDNAKNTVYLQMNSLKPEDTAVYYCATRRGPKWQWLTYGYWGQGTQVTVSS | low polyreactivity
34 | QVQLVESGGGLVQAGGSLRLSCAASGRILYGYTMGWYRQAPGKEREFVATITRGGSTYYADSVKGRFTISRDNAKNTVYLQMNSLKPEDTAVYYCAAELSLATPTVPWYLYNYWGQGTQVTVSS | low polyreactivity
35 | QVQLVESGGGLVQAGGSLRLSCAASGRILYIYAMGWYRQAPGKERELVAAIRSSGGSTYYADSVKGRFTISRDNAKNSVYLQMNSLKPDDTAVYYCAATSRVSKSHLYGYWGQGTQVTVSS | high polyreactivity
36 | QVQLVESGGGLVQAGGSLRLSCAASGRILYLYTMGWYRQAPGKERELVAAISRGGSTYYADSVKGRFTISRDNAKNTVYLQMNSLKPEDTAVYYCSADARGYQFNYWGQGTLVTVSS | high polyreactivity
37 | QVQLVESGGGLVQAGGSLRLSCAASGRILYRYAMGWYRQAPGKERELVAAISYSGGSTSYADSVKGRFTISRDNAKNTVYVQMNSLKPEDTAVYYCAAAYYLLRYKKRYDYWGQGTQVTVSS | high polyreactivity
38 | QVQLVESGGGLVQAGGSLRLSCAASGRILYRYAMGWYRQAPGKERELVADISWSGGSRYYADSVKGRFTISRDNAKNTVYLQMNSLKPEDTAVYYCAAFRLWYSTFDYWGQGTQVTVSS | high polyreactivity
39 | QVQLVESGGGLVQAGGSLRLSCAASGRILYSYAMGWYRQAPGKEREFVADIRRSGGSTYYADSVKGRFTISRDNAKNTVYLQMNSLKPEDTAVYYCAKSQSAKGGYDYWGQGTQVTVSS | high polyreactivity
40 | QVQLVESGGGLVQAGGSLRLSCAASGRILYSYAMGWYRQAPGKERELVASISWSGGSTYYADSVKGRFTISRDNAKNTVYLQMNSLKPEDTAVYYCAKKYYSVYQTDVSGRYDYWGQGTQVTVSS | low polyreactivity
41 | QVQLVESGGGLVQAGGSLRLSCAASGRILYSYPMGGYRQAPGKERELVASISLSGGRTYADSVKGRFTISRDNAKNTVFLQMNSLKPVDTAVYYCNARIRTSRYLWPFDYWGQGTQVTVSS | high polyreactivity
42 | QVQLVESGGGLVQAGGSLRLSCAASGRILYVNTMGWYRQAPGKERELVAGITSRVGSTYYADSVKGRFTISRDNGKNTVYLQMKSLKPEYTAVYYCNARSTWRHRRDQVDFDYWGQGTQVTVSS | low polyreactivity
43 | QVQLVESGGGLVQAGGSLRLSCAASGRINAMGWYRQAPGKERELVAVITLRGGSTYYADSVKGRFTISRDNAKNTVYLQMNSLKPEDTAVYYCAAVYRWPDAKYDYWGQGTQVSVSS | low polyreactivity
